Laboratory results from publication PMC12276895 (2025).

Each binder was assayed against prefusion biotinylated MERS-CoV EMC/2012 S ectodomain trimer (MERS-CoV EMC/2012, UniProt K9N5Q8 18-1296) (assay: SPR).

Binder	Kd
nTrimer5 homotrimeric miniprotein (designed binder) SPVKRFVREVLEEAEEAYEKGDRRQFEELLWLAEWAARDANDEELEEEIREFEKEVKGSGMTRLEQLLAQGVDPFEVLREKIEKLKEIWKKYEEAKGEEKERYRDELLKLMMEVLELMVELLSRR	0.032 nM
nTrimer1 homotrimeric miniprotein (cb3-GSG-Trimer1) (designed binder) SPVKRFVREVLEEAEEAYEKGDRRQFEELLWLAEWAARDANDEELEEEIREFEKEVKGSGSEALEELEKALRELKKSTDELERSTEELEKNPSEDALVENNRLIVENNKIIVEVLRIIAKVLK	0.021 nM
nTrimer2 homotrimeric miniprotein (designed binder) SPVKRFVREVLEEAEEAYEKGDRRQFEELLWLAEWAARDANDEELEEEIREFEKEVKGSGKRIDEIESKLKHLEEFTTHLIKLMETMLELLKLVSDGKSDSEEYKELLEKAEEYLKQATEAAKKI	0.027 nM
